Data reported in publication PMC4577081 (2015).

Target: human CD47/his fusion protein (extracellular domain of human CD47 fused to His-tag) (human)
Test: SPR; monomeric hCD47

B1: mouse anti-human CD47 monoclonal antibody 5F9 (antibody, V domains shown)
VH: QVQLQQPGAELVKPGASVMMSCKASGYTFTNYNMHWVKQTPGQGLEWIGTIYPGNDDTSYNQKFKDKATLTADKSSSAAYMQLSSLTSEDSAVYYCARGGYRAMDYWGQGTSVTVSS
VL: DVLMTQTPLSLPVSLGDQASISCRSSQSIVYSNGNTYLGWYLQKPGQSPKLLIYKVSNRFSGVPDRFSGSGSGTDFTLKISRVEAEDLGVYHCFQGSHVPYTFGGGTKVEIK
modifications: biotin-labeled in the competition ELISA (site not stated)
How did the Kd turn out when B1 was run?
The Kd was 19.9 nM.
